6 molecules from patent US20100209435 (published 2010) can be followed below.

Substitutions are numbered along the chain they refer to.

T1: CHO hOPGL 140 (human, UniProt O14788)
T1 chain: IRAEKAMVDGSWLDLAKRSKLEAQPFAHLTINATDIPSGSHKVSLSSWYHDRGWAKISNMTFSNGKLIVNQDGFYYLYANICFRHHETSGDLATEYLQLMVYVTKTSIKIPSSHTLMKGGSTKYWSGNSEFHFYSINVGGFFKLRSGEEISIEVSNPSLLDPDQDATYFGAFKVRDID

T2: E. coli mOPGL 158 (mouse, UniProt O35235)
T2 chain: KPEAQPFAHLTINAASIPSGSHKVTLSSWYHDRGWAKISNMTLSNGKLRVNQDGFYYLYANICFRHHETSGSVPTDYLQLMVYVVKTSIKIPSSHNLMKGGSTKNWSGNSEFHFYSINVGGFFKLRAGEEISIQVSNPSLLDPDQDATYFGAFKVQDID

T3: FLAG-murine OPGL[158-316]/DE (mouse, UniProt O35235)
T3 chain: T2 chain with S72D, V73L, P74A, D76E

B1: 2D8 (antibody, V domains shown)
VH: EVQLVQSGGGLVHPGGSLRLSCAGSGFTFSSYGMHWVRQAPGKGLEWVSGIGTGGGTYYADSVKGRFTISRDNVKNSLYLQMNSLRAEDMAVYYCARKNWGWFDYWGQGTLVTVSS
VL: EIVLTQSPATLSLSPGERATLSCRASQSISSYLAWYQQKPGQAPRLLIYDASNRATGIPARFSGSGSGTDFTLTISSLEPEDFAVYYCQQRSKWPPYTFGQGTKLEIKR
B2: 22B3 (antibody, V domains shown)
VH: B1 VH with A23E, Y32N, A40T, G54A, N76K, V92I, A96V, Y105P, T110A
VL: B1 VL with I29V, S30N, Y36F, V85I, K93N, Y97F
B3: 16E1 (antibody, V domains shown)
VH: EVQLVQSGGGLVHPGGSLRLSCAGSGFTFSGHALHWVRQAPGKGLEWVSGIGTHGGTYYADSVKGRFTISRDNAKNSLFLQMNSLSAEDMAVYYCTRRNWGQFDYWGQGTLVTVSS
VL: B1 VL with I29V, K93N
B4: 9H7 (antibody, V domains shown)
VH: B1 VH with A23E, Y32N, A40T, G54A, N76K, V92I, A96V, N99D, Y105P, T110A
VL: B1 VL
B5: 18B2 (antibody, V domains shown)
VH: EVQLVQSGGGLVHPGGSLRLSCVGSRFTFSAYPMHWVRQAPGKGLEWVSGIGSGGGTNYADSVKGRFTISRDTAKNSLYLQMNSLRAEDMAVYYCARGRNSFDYWGQGTLVTVSS
VL: DIQMTQSPSSLSASVGDRVTITCRASQGISTWLAWYQQKPEKAPKSLIYAASSLQSGVPSRFSGSGSGTDFTLTISSLQPEDFATYYCQQYNSYPPTFGQGTKVEIKR
B6: 2E11 (antibody, V domains shown)
VH: EVQLVQSGGDLVHPGGSLRLSCVGSGFTFSHYPLHWVRQAPGKGLEWISGIHTGGGTYYTDSVKGRFTISSDNAKNSLYLQMNTLRAEDMAVYYCARGRNSFDYWGQGTLVIVSS
VL: B5 VL with T31S, P80S, K103R, V104L

The target of the first assay is T1, CHO hOPGL 140. As to the kind of experiment: SPR.
For orientation: Kd means the free concentration of one partner at which half of the binding sites on the other are occupied at equilibrium, for simple one-to-one binding. Low readings indicate a tighter complex, high ones a looser complex. B1 returned a dissociation constant (Kd) of 92 pM.
B2 registered a Kd of 33.7 pM.
In the case of B3, the affinity, expressed as Kd, was 63.3 pM.
On the same count and under the same terms, as for B4, the figure is 193 pM; as for B5, 211 pM; as for B6, 292 pM.

In the next assay the target is T2, E. coli mOPGL 158. As to the kind of experiment: SPR.
Consider B2, for which the binding result is recorded as “no binding”.
As for B3, the binding result was “no binding”.
The same measure, in the same setting: the value for B4 was “no binding”.
Consider B6, for which the binding result is given as “no binding”.

The target of another assay is T3, FLAG-murine OPGL[158-316]/DE. Kind of assay: ELISA.
For B5, the binding result is given as “no binding”.
On the same count and under the same terms, as for B6, the entry is “no binding”.

A further assay addresses T2, E. coli mOPGL 158. Kind of assay: ELISA. In general terms: In an ELISA, binding on a coated surface is turned into a signal by an enzyme label.
On to B1, for which the binding result is reported as “no binding”.
For the molecule B5, the binding result was “no binding”.
